Experimental data taken from article PMC11088704, “Structural basis for the regulation of plant transcription factor WRKY33 by the VQ protein SIB1” (Communications Biology, 2024).
Each block holds one binder with its values, some of them ahead of it.

How the values were obtained:
[1] = target: T1, WRKY33_C-I360D mutant protein (Arabidopsis thaliana, UniProt Q8S8P5 331-422, I360D); assay: NMR titration; 2D 1H-15N HSQC of 15N-labeled WRKY33_C (or its mutants), 0.1 mM, with SIB1 or SIB1 peptides added at 2:1 (5:1 also for SIB1^40–60 and SIB1^55–69); 30 mM MES pH 6.0, 50 mM NaCl, 20 uM ZnSO4, 10% D2O, 25 °C; conditions: both partners purified
T1 construct: WRKY33, Arabidopsis, C-terminal DBD; source: E. coli BL21(DE3), purified (Ni-NTA, gel filtration Superdex-75)
T1 sequence (Q8S8P5 331-422 I360D): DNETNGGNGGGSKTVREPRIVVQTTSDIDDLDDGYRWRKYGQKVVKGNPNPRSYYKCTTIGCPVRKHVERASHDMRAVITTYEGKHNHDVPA

[2] = target: T2, WRKY33_C-I358D mutant protein (Arabidopsis thaliana, UniProt Q8S8P5 331-422, I358D); assay: as above; conditions: both partners purified
T2 construct: WRKY33, Arabidopsis, C-terminal DBD; source: E. coli BL21(DE3), purified (Ni-NTA, gel filtration Superdex-75)
T2 sequence (Q8S8P5 331-422 I358D): as the sequence (Q8S8P5 331-422 I360D) above, with I28D, D30I counted along it

[3] = target: T3, WRKY33 C-terminal DNA-binding domain (WRKY33_C) (Arabidopsis thaliana, UniProt Q8S8P5 331-422); assay: cross-linking; EGS crosslinker, 30-fold molar excess; WRKY33_C and SIB1 each 90 uM; 20 mM HEPES pH 7.0, 50 mM NaCl; room temperature; Tricine-SDS-PAGE; conditions: both partners purified
T3 construct: it holds I350 and the truncation V352-A422 is derived from it; Zinc-finger domain; 20 uM ZnSO4 in the buffers; Construct limits may be read from PDB 8K31; also called WRKY33 cDBD; WK33; source: E. coli BL21(DE3), purified (Ni-NTA, gel filtration Superdex-75)
T3 sequence (Q8S8P5 331-422): as the sequence (Q8S8P5 331-422 I360D) above, with D30I counted along it

[4] = target: T4, spin-labeled WRKY33_C R366C (Arabidopsis thaliana, UniProt Q8S8P5 331-422, R366C, Cys366 labelled with N-[2-maleimidoethyl]ethylenediamine-N,N,N',N'-tetraacetic acid monoamide, chelating Mn^2+ (paramagnetic) or Ca^2+); assay: NMR titration; 2D 1H-15N HSQC of 15N-labeled SIB1 free and in complex with unlabeled WRKY33_C or its mutants; 30 mM MES pH 6.0, 50 mM NaCl, 20 uM ZnSO4, 25 °C; conditions: both partners purified
T4 construct: WRKY33, Arabidopsis, C-terminal DBD; also called R366C spin-labeled; Ca^2+-chelated WRKY33_C mutant; source: E. coli, purified as the wild type; labelled, then purified on a cation exchange column
T4 sequence (Q8S8P5 331-422 R366C): as the sequence (Q8S8P5 331-422 I360D) above, with D30I, R36C counted along it

[5] = target: T5, spin-labeled WRKY33_C D357C (Arabidopsis thaliana, UniProt Q8S8P5 331-422, D357C, Cys357 labelled with N-[2-maleimidoethyl]ethylenediamine-N,N,N',N'-tetraacetic acid monoamide, chelating Mn^2+ (paramagnetic) or Ca^2+); assay: as above; conditions: both partners purified
T5 construct: WRKY33, Arabidopsis, C-terminal DBD; also called D357C spin-labeled; Ca^2+-chelated WRKY33_C mutant; source: E. coli, purified as the wild type; labelled, then purified on a cation exchange column
T5 sequence (Q8S8P5 331-422 D357C): as the sequence (Q8S8P5 331-422 I360D) above, with D27C, D30I counted along it

[6] = target: T6, WRKY33_C D357C mutant (Arabidopsis thaliana, UniProt Q8S8P5 331-422, D357C); assay: as above; conditions: both partners purified
T6 construct: WRKY33, Arabidopsis, C-terminal DBD; The mutant without the maleimide-EDTA tag; source: E. coli, expressed and purified similarly to the wild-type protein
T6 sequence (Q8S8P5 331-422 D357C): as the sequence (Q8S8P5 331-422 I360D) above, with D27C, D30I counted along it

[7] = target: T7, WRKY33_C K376C mutant (Arabidopsis thaliana, UniProt Q8S8P5 331-422, K376C); assay: as above; conditions: both partners purified
T7 construct: WRKY33, Arabidopsis, C-terminal DBD; The mutant without the maleimide-EDTA tag; source: E. coli, expressed and purified similarly to the wild-type protein
T7 sequence (Q8S8P5 331-422 K376C): as the sequence (Q8S8P5 331-422 I360D) above, with D30I, K46C counted along it

[8] = target: T8, WRKY33_C R366C mutant (Arabidopsis thaliana, UniProt Q8S8P5 331-422, R366C); assay: as above; conditions: both partners purified
T8 construct: WRKY33, Arabidopsis, C-terminal DBD; also called R336 (as printed once); source: E. coli, expressed and purified similarly to the wild-type protein
T8 sequence (Q8S8P5 331-422 R366C): as the sequence (Q8S8P5 331-422 I360D) above, with D30I, R36C counted along it

[9] = target: T9, spin-labeled WRKY33_C K376C (Arabidopsis thaliana, UniProt Q8S8P5 331-422, K376C, Cys376 labelled with N-[2-maleimidoethyl]ethylenediamine-N,N,N',N'-tetraacetic acid monoamide, chelating Mn^2+ (paramagnetic) or Ca^2+); assay: as above; conditions: both partners purified
T9 construct: WRKY33, Arabidopsis, C-terminal DBD; also called K376C spin-labeled; Ca^2+-chelated WRKY33_C mutant; source: E. coli, purified as the wild type; labelled, then purified on a cation exchange column
T9 sequence (Q8S8P5 331-422 K376C): as the sequence (Q8S8P5 331-422 I360D) above, with D30I, K46C counted along it

[10] = target: T3, WRKY33 C-terminal DNA-binding domain …; assay: SEC; Superdex-75; Trx-SIB1 incubated with WRKY33_C before loading; protein standards for calibration; conditions: both partners purified
[11] = target: WRKY33_C (Arabidopsis thaliana, UniProt Q8S8P5 345-422); assay: EMSA; no SIB1; estimated from band intensity (an earlier response in the peer review file prints 150 uM, called sub-micromolar); EMSA: NMR buffer (composition not given in material) with 100 mM NaCl, 1.0 ng dsDNA in 20 ul, room temperature 20 min, SIB1:WRKY33_C 2:1; gel in 0.5x TBE, GelRed stain; conditions: protein: recombinant; tags: C-terminal 6xHis; blunt
WRKY33_C, sequence (Q8S8P5 345-422): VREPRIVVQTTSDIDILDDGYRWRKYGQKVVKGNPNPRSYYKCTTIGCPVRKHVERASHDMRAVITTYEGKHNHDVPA

[12] = target: T10, WRKY33_C I350A mutant (Arabidopsis thaliana, UniProt Q8S8P5 331-422, I350A); assay: NMR titration; 2D 1H-15N HSQC of 15N-labeled WRKY33_C (or its mutants), 0.1 mM, with SIB1 or SIB1 peptides added at 2:1 (5:1 also for SIB1^40–60 and SIB1^55–69); 30 mM MES pH 6.0, 50 mM NaCl, 20 uM ZnSO4, 10% D2O, 25 °C; conditions: both partners purified
T10 construct: WRKY33, Arabidopsis, C-terminal DBD; source: E. coli BL21(DE3), purified (Ni-NTA, gel filtration Superdex-75)
T10 sequence (Q8S8P5 331-422 I350A): as the sequence (Q8S8P5 331-422 I360D) above, with I20A, D30I counted along it

[13] = target: T11, WRKY33_C V351A mutant (Arabidopsis thaliana, UniProt Q8S8P5 331-422, V351A); assay: as above; conditions: both partners purified
T11 construct: WRKY33, Arabidopsis, C-terminal DBD; source: E. coli BL21(DE3), purified (Ni-NTA, gel filtration Superdex-75)
T11 sequence (Q8S8P5 331-422 V351A): as the sequence (Q8S8P5 331-422 I360D) above, with V21A, D30I counted along it

B2: SIB1^11-100 (T11-L100 segment of Arabidopsis sigma factor-binding protein SIB1) (domain or fragment, Arabidopsis thaliana, UniProt Q9LDH1 11-100, looked up)
chain: TTSLDKKKPSPVSRKSPKQKKKTTSTNKPIKVRYISNPMRVQTCASKFRELVQELTGQDAVDLQPEPIYSPSSDDHNLSPPAENLAPRVL
notes: SIB1 (VQ23), Arabidopsis, residues T11-L100; the N-terminal chloroplast targeting signal and the C-terminal 51 residues are deleted; Used unlabelled, 15N- or 13C/15N-labelled; also called VQ23; source: E. coli BL21(DE3), purified (Ni-NTA, gel filtration Superdex-75)
stoichiometry N [3]: 1
binding result [4]: binds
binding result [5]: binds
binding result [6]: binds
binding result [7]: binds
binding result [8]: binds
binding result [9]: binds

B3: Trx-SIB1 fusion protein (thioredoxin-fused SIB1) (domain or fragment, Arabidopsis thaliana, UniProt Q9LDH1 11-100, looked up)
chain: B2 chain
notes: SIB1 (VQ23), Arabidopsis; limits are not restated for the Trx fusion; The methods give 24 kDa for 'Trx'
stoichiometry N [10]: 1

B4: W-box DNA (dsDNA)
DNA 1: AAAGTTGACCAA
DNA 2: TTGGTCAACTTT
Kd [11]: ~150 nM

Now from value to binder:

binding result [1]: binds
binding result [2]: binds
B1: SIB1^mini-V51R mutant peptide (peptide, UniProt Q9LDH1 46-69, looked up)
peptide: SNPMRRQTCASKFRELVQELTGQD
notes: SIB1 (VQ23), Arabidopsis, residues 46-69 with V51R

binding result [12]: binds
binding result [13]: binds
B5: SIB1^mini (SIB1^46–69 peptide, minimal SIB1 construct) (peptide, UniProt Q9LDH1 46-69, looked up)
peptide: SNPMRVQTCASKFRELVQELTGQD
notes: SIB1 (VQ23), Arabidopsis, residues 46-69: the VQ motif and its preceding segment; source: synthetic peptide
